The values below come from patent US7592307B2, “Releasable linkage and compositions containing same” (Alza Corporation, priority 1999, dated 2009).

The nature of data set [1]: Cleavage of mPEG-MeDTB-lysozyme in plasma (SDS-PAGE stained for PEG). The class given is in vitro ADME. The following applies: plasma for 18 hours. Here is the method:
The samples were stained with iodine, for PEG visualization. Lane 1 corresponds to mPEG5000-MeDTB-lysozyme, Lane 2 corresponds to mPEG5000-MeDTB-lysozyme in cysteine buffer, Lane 3 corresponds to mPEG5000-MeDTB-lysozyme in plasma for 18 hours, Lane 4 corresponds to mPEG5000-MeDTB-lysozyme with 1,4-dithio-DL-threitol (DTT) added, Lane 5 is a plasma sample control, and Lane 6 is PEG molecular weight markers. […] Free PEG is liberated after treatment with low molecular weight thiol, such as DTT.

The nature of data set [2]: Thiolytic cleavage of PEG-lysozyme conjugates (SDS-PAGE, RP-HPLC). The following applies: for cleavage under reducing SDS-PAGE conditions: 2% β-mercaptoethanol, 10 minutes at 70° C. The class given is physicochemical. The procedure:
In a study performed in support of the invention, lysozyme was used as a model polypeptide. As described in Example 8, lysozyme was incubated with mPEG-MeDTB-nitrophenylcarbonate in 0.1 M borate, at pH 9, at a 2:1 ratio of nitrophenylcarbonate to amino group of lysozyme. After reactions times of 15 minutes and 3 hours, separate samples were characterized by SDS-PAGE. A comparative conjugate was prepared by reacting lysozyme under the same conditions for 60 minutes with mPEG-nitrophenyl carbonate, which will form a stable mPEG-lysozyme conjugate.
Lanes 6-9 of the gel correspond to the samples in Lanes 1-4, but under reducing SDS-PAGE conditions, after treatment with 2% β-mercaptoethanol for 10 minutes at 70° C. […] In contrast, the stable mPEG-lysozyme conjugate was not affected upon incubation with a reducing agent, as evidenced by the agreement in the profile in Lane 9 and Lane 4.
A similar study was done using cysteine as a reducing agent on a purified mPEG5000-MeDTB-lysozyme conjugate. The results of the SDS-PAGE profile are shown in FIG. 12B, where an mPEG-MeDTB-lysozyme conjugate (Lane 1) treated with 1 mM cysteine (Lane 2), 5 mM cysteine (Lane 3), and 50 mM cysteine (Lane 4) are shown. Also shown are an mPEG-lysozyme conjugate (no cleavable linkage) before (Lane 5) and after treatment (Lane 6) with 50 mM cysteine. Lysozyme before (Lane 7) and after (Lane 8) with 50 mM cysteine are also shown. Lane 9 corresponds to protein markers.
Example 8 describes the methodology of the reverse-phase HPLC analysis. The trace at the bottom of FIG. 13A corresponds to neat lysozyme.
Reverse-phase HPLC analysis. RP-HPLC separation of PEG-lysozyme conjugates was achieved on a Vydac™ Protein C4 (4.6×150 mm) column eluted at 1 ml/min with aqueous acetonitrile gradient as follows. Each chromatography run started with a mobile phase A (30% acetonitrile, 5% 0.1 M sodium acetate pH 5, and 65% H2O), and over a period of 40 min ended with a mobile phase B (50% acetonitrile, 50% 0.1 M sodium acetate pH 5). UV detector set at 280 nm was used to monitor the chromatography. SDS-PAGE. Polyacrylamide gel electrophoresis under denaturing conditions was performed for conjugates characterization. Pre-cast NuPAGE® Bis-Tris gels (4-15%), NuPAGE®MES running buffer, molecular weight protein standards (Mark 12™), and Colloidal Coomassie® G-250 staining kit, were all obtained from Invitrogen, Carlsbad, Calif. […] Aliquots were taken out from the reaction vial at various time points and analyzed by RP-HPLC as described above (see FIG. 13A). […] Purified PEG-DTB-lysozyme containing only one PEG moiety per lysozyme was treated with 1 mM cysteine while the reaction was monitored by LC-MS. […]

The target of data set [3] is bovine serum albumin (Bos taurus, UniProt P02769). The data set can be described thus: Cleavage of mPEG-DTB-lysozyme by albumin (SDS-PAGE stained for PEG). The following applies: treated with bovine serum albumin. The class given is physicochemical. An excerpt: In another set of studies, it was shown that the thiol group of albumin was acting as the cleaving agent. Albumin is an abundant protein-thiol in plasma (Kratz, F. et al. J. Med. Chem., 45:5523 (2002)). The SDS-PAGE gel from this study is shown in FIG. 16B, where Lanes 1-12 were as follows:
The gel was stained for visibility of PEG. […] Lane 10 corresponds to mPEG-DTB-lysozyme treated with albumin and no spot on the gel corresponding to the mPEG-DTB-lysozyme conjugate is visible (compare to Lane 11), nor is a spot corresponding to released PEG visible (compare to Lane 4).

Data set [4] has as its system bacterial cell wall. The data set can be described thus: Bacterial cell wall lysis turbidometric assay of enzyme activity. Format: biochemical. The note with it: after treatment with 1 mM cysteine.
A short description of data set [5]: Blood lysozyme concentration after intravenous or subcutaneous administration. The class given is in vivo. The note with it: rats. The procedure:
The mPEG12000-MeDTB-lysozyme conjugates were administered in vivo to rats to characterize the in vivo behavior of the conjugate and its ability to cleave under physiologic conditions. In a first study, nine rats were divided into three test groups for administration of PEG-lysozyme, PEG-MeDTB-lysozyme, or free lysozyme. The test compound was administered intravenously or subcutaneously and blood samples were taken at defined times for analysis of blood lysozyme concentration.

Chain of bovine serum albumin (P02769 25-607): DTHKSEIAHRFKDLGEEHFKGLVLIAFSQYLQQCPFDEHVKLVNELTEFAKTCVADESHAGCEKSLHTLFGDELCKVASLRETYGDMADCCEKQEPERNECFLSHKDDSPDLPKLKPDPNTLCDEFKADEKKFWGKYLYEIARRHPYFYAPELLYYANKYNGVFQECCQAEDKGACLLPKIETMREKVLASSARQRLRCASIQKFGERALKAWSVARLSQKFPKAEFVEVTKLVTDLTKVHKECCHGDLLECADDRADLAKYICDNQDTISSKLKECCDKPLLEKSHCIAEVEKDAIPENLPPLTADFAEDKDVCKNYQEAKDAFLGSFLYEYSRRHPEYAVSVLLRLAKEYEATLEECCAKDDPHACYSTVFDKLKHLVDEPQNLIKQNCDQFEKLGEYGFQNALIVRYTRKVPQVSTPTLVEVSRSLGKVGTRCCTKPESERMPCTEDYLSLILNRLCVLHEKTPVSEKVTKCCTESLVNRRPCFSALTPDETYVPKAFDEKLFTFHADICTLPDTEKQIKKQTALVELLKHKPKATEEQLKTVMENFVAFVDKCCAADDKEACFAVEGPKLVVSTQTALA

mPEG5000-MeDTB-lysozyme: the cleavage in plasma entry in data set [1] is listed as “cleaved in plasma”. Besides, the “cleavage and release of lysozyme (RP-HPLC)” value in data set [2] (1 mM cysteine, 30 minute time point) was “near completion”. Moreover, the “cleavage under reducing SDS-PAGE conditions” value in data set [2] is “decomposed to regenerate native lysozyme”. For the same substance, in data set [2] (treated with cysteine), the “cleavage by cysteine (SDS-PAGE stained for PEG)” value is “cleaved in the presence of cysteine”. Moreover, the cleavage by albumin result in data set [3] was “cleaved by the albumin”. The “cell-lysing (enzymatic) activity after thiolysis” value in data set [4] is recorded as “nearly all”; in data set [4] (listed as mPEG-DTB-Lysozyme), “Recovery of enzymatic activity”.

As for mPEG-lysozyme [reference compound], the “cleavage under reducing SDS-PAGE conditions” value in data set [2] is given as “not affected”. The “cell-lysing (enzymatic) activity after thiolysis” value in data set [4] is “remained inactive”.

Turning to PEG12000-MeDTB-lysozyme, in data set [5] (intravenous), the T1/2α was found to be 3.71 h and the T1/2β came out at 37.2 h. For the same substance, the “bioavailability (AUC)” value in data set [5] (subcutaneous) is given as “best bioavailability”.

In data set [5] (intravenous), PEG12000-lysozyme [reference compound] came in with a T1/2α of 2.17 h and a T1/2β of 32.9 h.

In data set [5] (intravenous), lysozyme: model polypeptide displayed a T1/2α of 0.25 h and a T1/2β of 24.1 h. The blood concentration decrease result in data set [5] (intravenous, within one hour after administration) is “more than 10 fold”.
